Measurements: patent publication US20140004128A1

Target: recombinant human IL-18 (human) (UniProt Q14116)
Assay: free IL-18 ECL immunoassay: recombinant human IL-18 captured by plate-coated Antibody 12GL, biotinylated detection antibody; rhIL-18BP titrated as competitor of the capture

IC50 (read off the curve): 3 ng/mL
Substance: recombinant IL-18BP (from UniProt O95998 31-194)
